# Assay results published in patent publication US20220249633A1.
# Target: HLA-A*24 (human)
# Test: UV-exchange ELISA, exchange yield grade
row,Binder,peptide exchange yield
1,SYAPPSEDLFL [… (SEQ ID NO: 213)],20 to 49%
2,KYLMELTLI [… (SEQ ID NO: 214)],50 to 75%
3,IYISNSIYF [… (SEQ ID NO: 217)],> 75%
4,VHFEDTGKTLLF [… (SEQ ID NO: 244)],50 to 75%
5,VYGEPRELL [… (SEQ ID NO: 242)],50 to 75%
6,MYLKLVQLF [… (SEQ ID NO: 226)],20 to 49%
7,AFADVSVKF [… (SEQ ID NO: 231)],> 75%
8,RYVEGIVSL [… (SEQ ID NO: 202)],50 to 75%
9,SYVASFFLL [… (SEQ ID NO: 215)],20 to 49%
10,VFTTSSNIF [… (SEQ ID NO: 186)],> 75%
11,LYLENNAQTQF [… (SEQ ID NO: 193)],50 to 75%
12,TYGMVMVTF [… (SEQ ID NO: 230)],50 to 75%
13,VFKSEGAYF [… (SEQ ID NO: 211)],> 75%
14,KYLQVVGMF [… (SEQ ID NO: 180)],50 to 75%
15,VFGKSAYLF [… (SEQ ID NO: 256)],50 to 75%
16,VYLPKIPSW [… (SEQ ID NO: 236)],50 to 75%
17,SYLPAIWLL [… (SEQ ID NO: 234)],50 to 75%
18,AYIKGGWIL [… (SEQ ID NO: 195)],50 to 75%
19,SYLNHLNNL [… (SEQ ID NO: 199)],50 to 75%
20,TYIPVGLGRLL [… (SEQ ID NO: 179)],50 to 75%
21,VYQKIILKF [… (SEQ ID NO: 255)],50 to 75%
22,AFIETPIPLF [… (SEQ ID NO: 209)],> 75%
23,DYVGFTLKI [… (SEQ ID NO: 198)],20 to 49%
24,YYLSDSPLL [… (SEQ ID NO: 232)],50 to 75%
25,IYQYVADNF [… (SEQ ID NO: 228)],50 to 75%

row,Binder,peptide exchange yield
1,GYNPNRVFF [… (SEQ ID NO: 201)],50 to 75%
2,GYIRGSWQF [… (SEQ ID NO: 196)],> 75%
3,TYPDGTYTGRIF [… (SEQ ID NO: 191)],50 to 75%
4,TYTNTLERL [… (SEQ ID NO: 225)],50 to 75%
5,IYRFITERF [… (SEQ ID NO: 227)],50 to 75%
6,KYVGQLAVL [… (SEQ ID NO: 237)],50 to 75%
7,AFPTFSVQL [… (SEQ ID NO: 248)],> 75%
8,PYFFANQEF [… (SEQ ID NO: 224)],50 to 75%
9,FYVNVKEQF [… (SEQ ID NO: 216)],50 to 75%
10,SYSEIKDFL [… (SEQ ID NO: 220)],> 75%
11,SYAPPSEDLF [… (SEQ ID NO: 212)],20 to 49%
12,TFITQSPLL [… (SEQ ID NO: 223)],> 75%
13,SFTKTSPNF [… (SEQ ID NO: 247)],50 to 75%
14,QYLVHVNDL [… (SEQ ID NO: 185)],> 75%
15,SYLELANTL [… (SEQ ID NO: 243)],50 to 75%
16,VYAIFRILL [… (SEQ ID NO: 239)],50 to 75%
17,RYHPTTCTI [… (SEQ ID NO: 249)],> 75%
18,VYKDSIYYI [… (SEQ ID NO: 235)],50 to 75%
19,IYAGVGEFSF [… (SEQ ID NO: 210)],> 75%
20,IYQFVADSF [… (SEQ ID NO: 229)],50 to 75%
21,YYFFVQEKI [… (SEQ ID NO: 240)],50 to 75%
22,KYIGNLDLL [… (SEQ ID NO: 221)],> 75%
23,AYAANVHYL [… (SEQ ID NO: 187)],> 75%
24,LYPQLFVVL [… (SEQ ID NO: 245)],50 to 75%

# Further lines, results first:
row,peptide exchange yield,Binder
1,50 to 75%,LYSELNKWSF [… (SEQ ID NO: 218)]
2,50 to 75%,LYSELTETL [… (SEQ ID NO: 190)]
3,50 to 75%,VYTKALSSL [… (SEQ ID NO: 251)]
4,> 75%,AFGQETNVPLNNF [… (SEQ ID NO: 252)]
5,50 to 75%,EYLSTCSKL [… (SEQ ID NO: 204)]
6,50 to 75%,VYQSLSNSL [… (SEQ ID NO: 194)]
7,50 to 75%,VYPVVLNQI [… (SEQ ID NO: 205)]
8,20 to 49%,KYPDIASPTF [… (SEQ ID NO: 250)]
9,50 to 75%,LYSDAFKFIVF [… (SEQ ID NO: 207)]
10,> 75%,IFTDIFHYL [… (SEQ ID NO: 197)]
11,50 to 75%,VYPPYLNYL [… (SEQ ID NO: 181)]
12,50 to 75%,RYSTFSEIF [… (SEQ ID NO: 192)]
13,> 75%,IYSVGAFENF [… (SEQ ID NO: 184)]
14,50 to 75%,SYVKVLHHL [… (SEQ ID NO: 241)]
15,50 to 75%,GYKTFFNEF [… (SEQ ID NO: 188)]
16,50 to 75%,SYLKAVFNL [… (SEQ ID NO: 219)]
17,50 to 75%,KYLESSATF [… (SEQ ID NO: 254)]
18,50 to 75%,VFIHHLPQF [… (SEQ ID NO: 200)]
19,50 to 75%,IYGFFNENF [… (SEQ ID NO: 253)]
20,50 to 75%,QYLTAAALHNL [… (SEQ ID NO: 233)]
21,50 to 75%,PYLQDVPRI [… (SEQ ID NO: 183)]
22,> 75%,AYAQLGYLLF [… (SEQ ID NO: 182)]
23,> 75%,TYLEKIDGF [… (SEQ ID NO: 208)]
24,50 to 75%,NYSSAVQKF [… (SEQ ID NO: 178)]
25,20 to 49%,KYLSVQLTL [… (SEQ ID NO: 246)]
26,> 75%,NYLDVATFL [… (SEQ ID NO: 206)]
